Measurements: patent publication US20200024348A1 (Alector, published 2020)
Where a chain is given by its changes, count along the chain named. Numbers in names are those of the source. One block for each binder: values may come before it.

Columns and labels:
[1] = target: T1, human Sortilin (SORT1), full-length untagged, expressed on cells (human, UniProt Q99523 78-831); assay: cell-based or functional assay
T1 sequence: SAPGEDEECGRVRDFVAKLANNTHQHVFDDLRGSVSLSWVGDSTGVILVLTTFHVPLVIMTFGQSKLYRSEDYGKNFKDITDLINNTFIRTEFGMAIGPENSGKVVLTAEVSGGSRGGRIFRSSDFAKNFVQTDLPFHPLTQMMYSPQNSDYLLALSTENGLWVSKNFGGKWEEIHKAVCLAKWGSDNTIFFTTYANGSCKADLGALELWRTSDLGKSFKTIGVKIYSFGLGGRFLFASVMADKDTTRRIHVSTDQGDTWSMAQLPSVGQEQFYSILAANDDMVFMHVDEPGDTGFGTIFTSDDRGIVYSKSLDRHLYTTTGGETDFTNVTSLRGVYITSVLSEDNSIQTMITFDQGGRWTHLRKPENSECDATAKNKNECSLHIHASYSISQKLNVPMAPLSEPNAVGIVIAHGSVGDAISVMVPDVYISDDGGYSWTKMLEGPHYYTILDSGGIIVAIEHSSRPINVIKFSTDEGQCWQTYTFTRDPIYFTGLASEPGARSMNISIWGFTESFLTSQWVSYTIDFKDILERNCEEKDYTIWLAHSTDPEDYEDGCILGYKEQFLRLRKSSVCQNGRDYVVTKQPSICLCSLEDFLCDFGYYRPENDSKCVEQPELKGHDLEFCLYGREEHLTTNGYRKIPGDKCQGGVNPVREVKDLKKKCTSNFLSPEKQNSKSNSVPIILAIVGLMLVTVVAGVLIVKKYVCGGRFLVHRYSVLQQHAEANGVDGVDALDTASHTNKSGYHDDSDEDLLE

[2] = target: T1, human Sortilin (SORT1), full-length …; assay: FACS on HEK293T cells expressing human SORT1, huIgG1; average of two experiments
Procedure: (§1) For the binding assay, stable HEK293T cells expressing human SORT1 were harvested by trypsinization, washed in PBS, counted and plated on 96-well u-bottom plates at 1×10⁵ cells/well. The plates were spun at 1,400 rpm for 3 minutes and primary anti-SORT1 or control antibodies were added in FACS buffer (PBS+2 FBS) and incubated on ice for one hour. Cells were subsequently centrifuged as before and washed thrice with FACS buffer. Cells were then incubated with anti-human APC conjugated secondary antibody (BD Biosciences) in FACS buffer for 30 minutes on ice. Cells were again washed three times with FACS buffer and analyzed on a BD FACS Canto or an Intellicyt Flow Cytometer. Binding was measured as median fluorescent intensity (MFI) in the […] channel of the GFP positive cell population.
(§2) All antibodies were tested on the huIgG1 backbone.

[3] = target: T1, human Sortilin (SORT1), full-length …; assay: cell-based or functional assay; remark: listed apart in the source
[4] = target: T1, human Sortilin (SORT1), full-length …; assay: cell-based or functional assay; remark: listed apart in the source
[5] = target: T1, human Sortilin (SORT1), full-length …; assay: FACS on HEK293T cells expressing human SORT1, huIgG1
Procedure: as §1, §2

[6] = target: T1, human Sortilin (SORT1), full-length …; assay: cell-based or functional assay; remark: listed apart in the source
[7] = target: T2, histidine-tagged human SORT1 (R&D Systems) (human, UniProt Q99523 78-755); assay: BLI, complete kinetic analysis with multiple concentrations of SORT1
T2 construct: Bought recombinant protein; also called His-tagged human SORT1; not shown: histidine tag
T2 sequence: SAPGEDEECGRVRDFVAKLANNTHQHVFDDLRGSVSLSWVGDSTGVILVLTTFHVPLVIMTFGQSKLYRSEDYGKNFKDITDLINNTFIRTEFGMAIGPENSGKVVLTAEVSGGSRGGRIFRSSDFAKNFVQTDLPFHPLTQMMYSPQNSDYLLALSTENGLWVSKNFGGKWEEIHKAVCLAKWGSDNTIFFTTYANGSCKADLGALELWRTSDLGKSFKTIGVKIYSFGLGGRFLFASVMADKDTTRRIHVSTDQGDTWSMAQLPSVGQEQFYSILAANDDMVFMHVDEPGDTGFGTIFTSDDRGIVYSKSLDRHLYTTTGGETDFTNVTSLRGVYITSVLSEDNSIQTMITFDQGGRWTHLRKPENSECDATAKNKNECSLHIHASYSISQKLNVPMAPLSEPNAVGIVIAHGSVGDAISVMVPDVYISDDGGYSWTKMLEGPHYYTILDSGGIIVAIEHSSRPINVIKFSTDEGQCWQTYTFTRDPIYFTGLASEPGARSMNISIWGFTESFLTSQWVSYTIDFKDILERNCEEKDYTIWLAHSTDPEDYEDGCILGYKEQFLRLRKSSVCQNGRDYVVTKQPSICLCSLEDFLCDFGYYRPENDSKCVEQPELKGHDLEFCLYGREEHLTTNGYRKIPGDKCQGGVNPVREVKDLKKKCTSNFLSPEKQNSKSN

[8] = target: T1, human Sortilin (SORT1), full-length …; assay: FACS on HEK293T cells expressing human SORT1
Procedure: as §1

[9] = target: T2, histidine-tagged human SORT1 (R&D …); assay: BLI (Octet RED96), antibody captured on anti-human IgG Fc sensor, 20 nM His-tagged human SORT1, 1:1 fit
Procedure: The G1m3 or G1m(f) allotype with L234A/L235A/P331S (“LALAPS” motif) mutations was used as a background (Jefferis R and Lefranc M-P, Mabs, 2009 July-August; 1(4): 332-338). […] Bio-layer interferometry (BLI) data was collected at a rate of 5 Hz at 25° C. on a Pall ForteBio Octet RED96 instrument. Data analysis was performed using ForteBio Data Analysis Software, version 9.0. Standard kinetic buffer (PBS, 0.1 BSA, 0.02 Tween-20, pH 7.2) was used for the assay and for preparing reagents. For all assays, sensor tips were equilibrated in buffer prior to analysis.
Twenty nM histidine-tagged human SORT1 (R&D Systems, Minneapolis, Minn.) was then bound to the captured anti-SORT1 surface (200 s association time, 1200 s dissociation time). […] Full, local fitting using a 1:1 interaction model was applied to extract association and dissociation rate constants (kₐ and kd, respectively) for each N33 mutant. Affinity constants (KD) were calculated from the ratio […]. Different amino acid substitutions were made at N33 and tested for binding to SORT1 in an off-rate screen (under non-stress conditions) as shown in Table 9.

DR EC50 (M): down-regulation of cell surface SORT1, U251 cells, FACS [1]: 2.69e-10 M
DR at 0.6 nM antibody (IgG): percent SORT1 downregulation, U251 cells [1]: 43%
Kd [2]: 0.856 nM
DR at 1.25 nM antibody (IgG): percent SORT1 downregulation, U251 cells [3]: 61.5%
B1: S-60-3 (antibody, IgG1, V domains shown)
VH: QVQLQESGPGLVKPSETLSLTCAVSGYSISSGYYWGWIRQPPGKGLEWIGTIYHSGSTYYNPSLKSRVTISVDTSKNQFSLKLSSVTAADTAVYYCARQGSIKQGYYGMDVWGQGTTVTVSS
VL: DIVMTQSPLSLPVTPGEPASISCRSSQSLLRSNGYNYLDWYLQKPGQPPQLLIYLGSNRVSGVPDRFSGSGSGTDFTLKISRVEAEDVGVYYCMQQQETPLTFGGGTKVEIK
notes: Tested on the huIgG1 (WT) backbone

DR at 0.63 nM antibody (IgG): percent SORT1 downregulation, U251 cells [4]: 88.8%
Kd [5]: 0.65 nM
B2: S-60-11 (antibody, IgG1, V domains shown)
VH: B1 VH with R67Q, K82E, K103Q
VL: not shown
notes: as for B1

Kd [5]: 1.63 nM
DR at 1.25 nM antibody (IgG): percent SORT1 downregulation, U251 cells [3]: 51.3%
B3: S-60-18 (antibody, IgG1, V domains shown)
VH: B1 VH
VL: B1 VL with E17G, P48S, V60A, F67L
notes: as for B1

Kd [5]: 0.8 nM
DR at 1.25 nM antibody (IgG): percent SORT1 downregulation, U251 cells [3]: 55.5%
B4: S-60-19 (antibody, IgG1, V domains shown)
VH: B1 VH with R67Q, K82E, K103Q
VL: not shown
notes: as for B1

% DR at 150 nM antibody (IgG), U251 cells [6]: 69.3%
EC50 (pM): downregulation (DR) of cell surface SORT1, U251 cells, FACS [6]: 72.6 pM
Kd [7]: 0.298 nM
Kd [8]: 0.365 nM
B5: S-60-15.1 [N33T] as huIgG1 (antibody, V domains shown)
VH: B1 VH
VL: B1 VL with N33T, P48S, V60A, V83A, T99A
notes: huIgG1 without the LALAPS mutations

DR at 0.63 nM antibody (IgG): percent SORT1 downregulation, U251 cells [4]: 81.5%
Kd [2]: 0.755 nM
DR at 1.25 nM antibody (IgG): percent SORT1 downregulation, U251 cells [3]: 65.2%
B6: S-60-24 (antibody, IgG1, V domains shown)
VH: B1 VH
VL: B1 VL with P18S, S28G, P48S, V60A, T99A
notes: as for B1

DR at 0.63 nM antibody (IgG): percent SORT1 downregulation, U251 cells [4]: 80.5%
Kd [5]: 1.05 nM
B7: S-60-14 (antibody, IgG1, V domains shown)
VH: B1 VH with K65E, K103Q
VL: not shown
notes: as for B1

DR at 0.63 nM antibody (IgG): percent SORT1 downregulation, U251 cells [4]: 82.3%
Kd [5]: 0.75 nM
B8: S-60-13 (antibody, IgG1, V domains shown)
VH: B1 VH with K65E, K103Q
VL: not shown
notes: as for B1

DR at 0.63 nM antibody (IgG): percent SORT1 downregulation, U251 cells [4]: 85.4%
Kd [5]: 0.65 nM
B9: S-60-10 (antibody, IgG1, V domains shown)
VH: B1 VH with R67Q, K82E, K103Q
VL: not shown
notes: as for B1

DR at 0.63 nM antibody (IgG): percent SORT1 downregulation, U251 cells [4]: 87.4%
Kd [5]: 0.89 nM
B10: S-60-12 (antibody, IgG1, V domains shown)
VH: B1 VH with R67Q, K82E, K103Q
VL: B1 VL
notes: as for B1

% DR at 150 nM antibody (IgG), U251 cells [6]: 3.4%
Kd [9]: 1 nM
B11: S-60-15.5 [N33D] (antibody, V domains shown)
VH: B1 VH
VL: DIVMTQSPLSLPVTPGEPASISCRSSQSLLRSDGYNYLDWYLQKPGQSPQLLIYLGSNRASGVPDRFSGSGSGTDFTLKISRAEAEDVGVYYCMQQQEAPLTFGGGTKVEIKR
notes: also called completely deamidated version of S-60-15

% DR at 150 nM antibody (IgG), U251 cells [6]: 70.3%
EC50 (pM): downregulation (DR) of cell surface SORT1, U251 cells, FACS [6]: 104 pM
Kd [7]: 0.26 nM
B12: S-60-15.1 [N33T] LALAPS (antibody, human IgG1, kappa, L234A L235A, V domains shown)
VH: B1 VH
VL: B11 VL with D33T
notes: huIgG1 LALAPS
